Results from US20250289894A1 (MORPHIC THERAPEUTIC, published 2025).
Substitutions are numbered along the chain they refer to. Read-outs that look alike come from different tables or passages of the source.

Key:
Human a7b1 Ecto (X2B) = target: T1, Human a7b1 Ecto (X2B) (human, UniProt P05556 21-728); test: SPR
T1 construct: extracellular domain

Human a7 Genu Calf 1-2 = target: T2, Human a7 Genu Calf 1-2 (human, UniProt Q13683 679-1078, limits assumed); test: SPR
T2 construct: domain: Genu Calf 1-2
T2 sequence (looked up): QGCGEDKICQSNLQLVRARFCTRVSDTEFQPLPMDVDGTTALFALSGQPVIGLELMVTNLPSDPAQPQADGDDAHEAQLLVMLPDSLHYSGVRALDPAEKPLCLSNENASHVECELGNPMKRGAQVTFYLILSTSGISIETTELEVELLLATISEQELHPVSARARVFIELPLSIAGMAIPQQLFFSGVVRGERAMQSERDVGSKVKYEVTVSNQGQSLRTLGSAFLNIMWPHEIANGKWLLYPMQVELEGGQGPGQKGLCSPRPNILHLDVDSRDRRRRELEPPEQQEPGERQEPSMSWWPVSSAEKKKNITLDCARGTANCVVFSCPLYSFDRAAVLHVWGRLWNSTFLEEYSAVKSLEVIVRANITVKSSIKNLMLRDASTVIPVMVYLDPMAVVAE

[1] = target: Human α7β1 Ecto Domain (human) (UniProt Q13683); test: SPR
[2] = target: T3, Cynomolgus Monkey α7β1 Ecto Domain (cynomolgus monkey, UniProt A0A2K5UNI0 34-1082; H9FU31 21-728); test: SPR
T3 construct: extracellular domain; Heterodimer

Human Leg α7 = target: T4, Human Leg α7 (human, UniProt Q13683 679-1078); test: SPR
T4 construct: also called human α7 leg; leg domain of human α7
T4 sequence: T2 sequence (looked up)

Cynomolgus Monkey Leg α7 = target: T5, Cynomolgus Monkey Leg α7 (cynomolgus monkey, UniProt A0A2K5UNI0 679-1078); test: SPR
T5 construct: domain: Leg α7
T5 sequence: T2 sequence (looked up) with T22A, V36A, I180T, R220K, Q246R, T384I

Mouse Leg α7 = target: T6, Mouse Leg α7 (mouse, UniProt Q61738 679-1076, limits assumed); test: SPR
T6 construct: domain: Leg α7
T6 sequence (looked up): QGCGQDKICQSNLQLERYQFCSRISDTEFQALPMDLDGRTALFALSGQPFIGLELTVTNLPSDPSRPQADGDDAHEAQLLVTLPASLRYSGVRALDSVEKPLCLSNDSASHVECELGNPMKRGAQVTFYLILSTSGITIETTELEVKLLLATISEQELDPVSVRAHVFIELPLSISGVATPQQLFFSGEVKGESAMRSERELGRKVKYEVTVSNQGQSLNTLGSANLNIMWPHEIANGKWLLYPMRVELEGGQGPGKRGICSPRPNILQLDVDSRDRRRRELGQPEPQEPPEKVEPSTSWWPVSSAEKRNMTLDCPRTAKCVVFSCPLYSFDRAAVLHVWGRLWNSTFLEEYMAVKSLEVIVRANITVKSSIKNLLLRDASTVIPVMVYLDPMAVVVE

Human α7β1 (human) [3] = target: Human α7β1 (human) (UniProt Q13683); test: cell-based or functional assay
[4] = target: Human α7β1 Ecto Domain (human) (UniProt Q13683); test: cell-based or functional assay
Human α7β1 (human) [5] = target: Human α7β1 (human) (UniProt Q13683); test: cell-based or functional assay; remark: listed apart in the source
Cynomolgus Monkey α7β1 = Cynomolgus Monkey α7β1 (cynomolgus monkey, UniProt A0A2K5UNI0 34-1181; H9FU31 21-798); test: cell-based or functional assay
Human α7β1 (human) [6] = target: Human α7β1 (human) (UniProt Q13683); test: cell binding, DMD myoblast cells, with Mn-BOP
human α7 calf-1 protein = target: T7, human α7 calf-1 protein (human, UniProt Q13683 688-848); test: binding ELISA, panel 'Human a7 Calf1 vs Ab2'
T7 construct: also called Calf-1 domain
T7 sequence: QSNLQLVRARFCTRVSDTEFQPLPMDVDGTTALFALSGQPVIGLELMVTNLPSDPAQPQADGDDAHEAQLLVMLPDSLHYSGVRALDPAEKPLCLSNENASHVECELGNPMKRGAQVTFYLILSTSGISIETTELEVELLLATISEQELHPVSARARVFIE

T1 sequence (P05556 21-728): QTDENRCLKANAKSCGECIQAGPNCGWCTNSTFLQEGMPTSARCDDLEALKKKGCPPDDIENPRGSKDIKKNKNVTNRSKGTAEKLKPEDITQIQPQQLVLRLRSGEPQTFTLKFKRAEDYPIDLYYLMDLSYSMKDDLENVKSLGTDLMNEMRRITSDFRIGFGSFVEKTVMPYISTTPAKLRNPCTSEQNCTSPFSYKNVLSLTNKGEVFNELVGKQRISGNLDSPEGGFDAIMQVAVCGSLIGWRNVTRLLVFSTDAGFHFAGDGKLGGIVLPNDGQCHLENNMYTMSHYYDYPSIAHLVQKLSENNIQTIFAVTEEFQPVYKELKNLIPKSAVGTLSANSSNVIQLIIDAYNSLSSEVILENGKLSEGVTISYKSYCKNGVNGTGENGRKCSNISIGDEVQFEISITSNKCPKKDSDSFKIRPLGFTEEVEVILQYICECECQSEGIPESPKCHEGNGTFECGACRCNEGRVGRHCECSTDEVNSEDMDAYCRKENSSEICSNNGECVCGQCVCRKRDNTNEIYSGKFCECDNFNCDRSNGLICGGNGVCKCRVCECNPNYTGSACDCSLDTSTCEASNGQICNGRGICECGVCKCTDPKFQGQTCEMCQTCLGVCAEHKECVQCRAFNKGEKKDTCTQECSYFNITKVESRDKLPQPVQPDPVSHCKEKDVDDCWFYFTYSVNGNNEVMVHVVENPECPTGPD

B1: Ab28 (antibody, human IgG1, lambda, L234A L235A)
heavy: EVQLVESGGGLVKPGGSLRLSCAASGFTFSSYTMNWVRQAPGKGLEWVSSISIVGNYIYYADSLKGRFTISRDNAKNSLYLQMNSLRAEDTAVYYCARRKWEHDAFDIWGQGTMVTVSSASTKGPSVFPLAPSSKSTSGGTAALGCLVKDYFPEPVTVSWNSGALTSGVHTFPAVLQSSGLYSLSSVVTVPSSSLGTQTYICNVNHKPSNTKVDKKVEPKSCDKTHTCPPCPAPEAAGGPSVFLFPPKPKDTLMISRTPEVTCVVVDVSHEDPEVKFNWYVDGVEVHNAKTKPREEQYNSTYRVVSVLTVLHQDWLNGKEYKCKVSNKALAAPIEKTISKAKGQPREPQVYTLPPSRDELTKNQVSLTCLVKGFYPSDIAVEWESNGQPENNYKTTPPVLDSDGSFFLYSKLTVDKSRWQQGNVFSCSVLHEALHSHYTQKSLSLSPG
light: SSELTQDPAVSVALGQTVRITCQGDSLRSYYASWYQQKPGQAPVLVIYGKNNRPSGIPDRFSGSSSGNTASLTITGAQAEDEADFYCTSRDNSGNHVVFGGGTKLTVLGQPKAAPSVTLFPPSSEELQANKATLVCLISDFYPGAVTVAWKADSSPVKAGVETTTPSKQSNNKYAASSYLSLTPEQWKSHKSYSCQVTHEGSTVEKTVAPTECS
B1 was tested, and the Kd (Human a7b1 Ecto (X2B)) was 7.3 nM and the Kd (Human a7 Genu Calf 1-2) was 1.3 nM.

B2: Ab29 (antibody, human IgG1, lambda, L234A L235A)
heavy: B1 heavy with M254Y, S256T, T258E, L430M, S436N
light: B1 light
With B2 the Kd (Human a7b1 Ecto (X2B)) was 8.9 nM and the Kd (Human a7 Genu Calf 1-2) was 3.6 nM.

B3: Ab2 (antibody, V domains shown)
VH: EVQLVESGGGLVKPGGSLRLSCAASGFTFSSYTMNWVRQAPGKGLEWVSSISIVGNYIYYADSLKGRFTISRDNAKNSLYLQMNSLRAEDTAVYYCARRKWEHDAFDIWGQGTMVTVSS
VL: SSELTQDPAVSVALGQTVRITCQGDSLRSYYASWYQQKPGQAPVLVIYGKNNRPSGIPDRFSGSSSGNTASLTITGAQAEDEADFYCTSRDNSGNHVVFGGGTKLTVL
notes: Human anti-α7β1 antibody (hybridoma, human transgenic mouse); Ab28 and Ab29 are full chains with the same CDRs
In the case of B3, the Kd [1] is reported as 5.69 nM, the Kd [2] is reported as 23 nM and the Kd (Human Leg α7) is reported as 1.58 nM. For the same binder, the Kd (Cynomolgus Monkey Leg α7) was 19.4 nM, the binding result (Mouse Leg α7) was “no binding” and the EC50 (nM), Cell Adhesion Assay (Human α7β1 (human) [3]) was 5.1 nM. The EC50 (nM), ECIS, DMD-1 myoblast cells (Human α7β1 (human) [3]) was 14.8 nM, the EC50 (nM), ECIS, DMD-2 myoblast cells (Human α7β1 (human) [3]) was 41.1 nM and the EC50 (nM), ECIS, Non-DMD myoblast cells (Human α7β1 (human) [3]) was 23.3 nM. The EC50 (nM), a7b1 activation assay (Human α7β1 (human) [3]) was 2.91 nM, the EC50 (ug/mL), a7b1 activation assay (Human α7β1 (human) [3]) was 0.44 µg/mL and the Emax (% TS2/16), a7b1 activation assay (Human α7β1 (human) [3]) was 117 % TS2/16. For the same binder, the Emax (% of RefAb1), ECIS, DMD-1 myoblast cells (Human α7β1 (human) [3]) was 289 % of RefAb1, the Emax (% of RefAb1), ECIS, DMD-2 myoblast cells (Human α7β1 (human) [3]) was 240 % of RefAb1 and the Emax (% of RefAb1), ECIS, Non-DMD myoblast cells (Human α7β1 (human) [3]) was 124 % of RefAb1. The Emax (%*), Cell Adhesion Assay (Human α7β1 (human) [3]) was 122%, the Emax (F.C.), a7b1 activation assay (Human α7β1 (human) [3]) was 2.75 F.C and the EC50 (nM), Solid Phase Assay [4] was 0.4 nM. The Emax (%*), Solid Phase Assay [4] was 97%, the EC50 (nm), a7b1 activation assay (Human α7β1 (human) [5]) was 2.8 nM and the EC50 (ug/mL), a7b1 activation assay (Human α7β1 (human) [5]) was 0.42 µg/mL. The Emax (% TS2/16), a7b1 activation assay (Human α7β1 (human) [5]) was 100 % TS2/16, the Emax (F.C.), a7b1 activation assay (Human α7β1 (human) [5]) was 2.09 F.C and the “EC50 (nM), Cell Adhesion Assay” value (Cynomolgus Monkey α7β1) was 3.31 nM. For the same binder, the “Emax (%*), Cell Adhesion Assay” value (Cynomolgus Monkey α7β1) was 115%, the EC50 (Human α7β1 (human) [6]) was 41.1 nM and the binding result (human α7 calf-1 protein) was “no binding”.
